Assay results as given in patent publication US20240409639A1 (published 2024).

Experiments:
FcγRI = test: BLI (Octet)
FcγRIIIa = test: BLI (Octet)
ILT4 HIS = test: BLI (Octet)
PD-1 HIS = test: BLI (Octet)
human FcRn [1] = test: BLI (Octet); pH 6.0
human FcRn [2] = test: BLI (Octet); pH 7.2

B1: CDX-585 (bispecific antibody)
heavy: QVQLVQSGAEVVKPGASVKISCKASGYTFTDYVMHWVRQAPGQSLEWMGVISTYHIPAVYNQKFKGKATMTVDTSTSTVYLELSSLRSEDTAVYYCAREVYGESYYFDVWGQGTTVTVSSASTKGPSVFPLAPSSKSTSGGTAALGCLVKDYFPEPVTVSWNSGALTSGVHTFPAVLQSSGLYSLSSVVTVPSSSLGTQTYICNVNHKPSNTKVDKKVEPKSCDKTHTCPPCPAPEAQGGPSVFLFPPKPKDTLYITREPEVTCVVVDVSHEDPEVKFNWYVDGVEVHNAKTKPREEQYNSTYRVVSVLTVLHQDWLNGKEYKCQVSNKALPAPIEKTISKAKGQPREPQVYTLPPSRDELTKNQVSLTCLVKGFYPSDIAVEWESNGQPENNYKTTPPVLDSDGSFFLYSKLTVDKSRWQQGNVFSCSVMHEALHNHYTQKSLSLSPGKGSSGGGGSDIQMTQSPSSLSASVGDRVTITCRASENIYSYLAWYQQKPGKAPKFLVYNADTLAEGVPSRFSGSGSGTDFTLTISSLQPEDFATYYCQHHYGTPFTFGCGTKLEIKGGGGSGGGGSGGGGSGGGGSQVQLVQSGAEVKKPGASVKVSCKASGYSFTGYTMHWVRQAPGQCLEWMGLINPYTGGTDYNQKFQGRVTMTVDRSTSTAYMELSSLRSEDTAVYYCARERPGGSQFIYYYALDYWGQGTTVTVSS
light: DIVMTQTPLSLPVTPGEPASISCRSSQSIVHSAGNTYLEWYLQKPGQSPQLLIYKVSNRFSGVPDRFSGSGSGTDFTLKISRVEAEDVGVYYCFQGSHVPYTFGGGTKVEIKRTVAAPSVFIFPPSDEQLKSGTASVVCLLNNFYPREAKVQWKVDNALQSGNSQESVTEQDSKDSTYSLSSTLTLSKADYEKHKVYACEVTHQGLSSPVTKSFNRGEC
FcγRI
  Kd: 1380 nM
FcγRIIIa
  Kd: 4910 nM
ILT4 HIS
  Kd: 0.305 nM
PD-1 HIS
  Kd: 0.063 nM
Human FcRn [1]
  Kd: 2.99 nM
Human FcRn [2]
  Kd: 114 nM
